The record followed here is US20060185026.

For the data set, the system named is tau (substrate in the in vitro phosphorylation assay of FIG. 1A).

For “PKCζ (kinase in the in vitro phosphorylation assay of FIG. 1A)”, the “incorporation of radioactive phosphate into tau (autoradiogram)” value was “when tau is incubated with PKCζ phosphate is incorporated into tau”.
